Assay results as given in US20140072613A1, “Compositions and Methods for Treating Cutaneous Scarring” (priority 2012, published 2014).

Legend:
[1] = molecular target: Abl(H8396P)(h) (human), P00519; test: cell-based or functional assay
[2] = molecular target: CK1δ(h) (human), P48730; test: cell-based or functional assay
[3] = molecular target: CaMKIIδ(h) (human), Q13557; test: cell-based or functional assay
[4] = molecular target: CaMKIδ(h) (human), Q8IU85; test: cell-based or functional assay
[5] = molecular target: PKCβI(h) (human), P05771; test: cell-based or functional assay
Sequence of PKCβI(h) (human), P05771 (P05771 whole entry): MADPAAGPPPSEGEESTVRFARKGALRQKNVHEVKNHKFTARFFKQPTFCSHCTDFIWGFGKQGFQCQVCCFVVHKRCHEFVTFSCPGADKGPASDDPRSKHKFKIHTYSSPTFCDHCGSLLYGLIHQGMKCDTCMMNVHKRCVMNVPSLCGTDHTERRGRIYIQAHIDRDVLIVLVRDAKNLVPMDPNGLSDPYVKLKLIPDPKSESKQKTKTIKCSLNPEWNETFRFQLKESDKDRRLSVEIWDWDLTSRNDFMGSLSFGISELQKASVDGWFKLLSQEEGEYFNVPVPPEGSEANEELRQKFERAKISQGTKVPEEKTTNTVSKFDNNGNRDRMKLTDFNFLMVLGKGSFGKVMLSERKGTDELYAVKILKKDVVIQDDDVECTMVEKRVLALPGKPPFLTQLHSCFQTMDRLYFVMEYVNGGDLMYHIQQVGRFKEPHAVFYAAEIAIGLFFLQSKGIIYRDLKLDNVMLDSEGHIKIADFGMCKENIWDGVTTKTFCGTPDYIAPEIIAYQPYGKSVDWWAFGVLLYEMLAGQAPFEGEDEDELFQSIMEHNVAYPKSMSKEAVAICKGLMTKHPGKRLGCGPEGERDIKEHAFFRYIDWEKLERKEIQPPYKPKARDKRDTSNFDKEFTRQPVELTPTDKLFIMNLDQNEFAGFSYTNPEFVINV

[6] = molecular target: PKG1α(h) (human), Q13976; test: cell-based or functional assay
Sequence of PKG1α(h) (human), Q13976 (Q13976 whole entry): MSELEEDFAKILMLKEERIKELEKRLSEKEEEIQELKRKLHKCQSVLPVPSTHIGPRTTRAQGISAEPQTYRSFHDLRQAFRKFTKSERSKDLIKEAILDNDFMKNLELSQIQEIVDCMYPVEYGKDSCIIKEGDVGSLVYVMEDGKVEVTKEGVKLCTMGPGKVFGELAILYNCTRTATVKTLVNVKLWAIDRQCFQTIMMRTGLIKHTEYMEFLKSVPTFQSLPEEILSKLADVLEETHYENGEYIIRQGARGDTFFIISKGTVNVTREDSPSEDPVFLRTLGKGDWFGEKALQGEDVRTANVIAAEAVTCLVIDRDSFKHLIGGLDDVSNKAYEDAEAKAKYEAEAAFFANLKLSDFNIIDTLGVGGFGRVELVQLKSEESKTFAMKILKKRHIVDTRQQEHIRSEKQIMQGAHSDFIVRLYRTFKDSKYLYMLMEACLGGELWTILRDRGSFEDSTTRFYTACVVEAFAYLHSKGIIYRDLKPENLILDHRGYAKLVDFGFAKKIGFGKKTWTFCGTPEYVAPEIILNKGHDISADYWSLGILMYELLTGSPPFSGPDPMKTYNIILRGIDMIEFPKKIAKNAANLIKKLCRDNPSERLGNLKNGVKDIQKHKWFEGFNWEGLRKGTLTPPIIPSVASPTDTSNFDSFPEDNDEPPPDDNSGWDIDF

[7] = molecular target: CaMKI(h) (human), Q14012; test: cell-based or functional assay
Sequence of CaMKI(h) (human), Q14012 (Q14012 whole entry): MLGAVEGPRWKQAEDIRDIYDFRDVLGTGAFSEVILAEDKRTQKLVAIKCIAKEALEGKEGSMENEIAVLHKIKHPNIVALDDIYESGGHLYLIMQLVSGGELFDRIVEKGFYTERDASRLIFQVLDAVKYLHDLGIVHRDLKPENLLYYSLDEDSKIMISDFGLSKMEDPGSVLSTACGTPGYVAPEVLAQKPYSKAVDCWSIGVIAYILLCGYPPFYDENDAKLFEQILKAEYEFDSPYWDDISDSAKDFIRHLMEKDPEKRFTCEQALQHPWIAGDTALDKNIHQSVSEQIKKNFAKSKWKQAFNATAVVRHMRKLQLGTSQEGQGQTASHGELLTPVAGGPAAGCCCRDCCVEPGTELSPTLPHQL

[8] = molecular target: T1, DMPK(h) (human), Q09013; test: cell-based or functional assay
T1 chain: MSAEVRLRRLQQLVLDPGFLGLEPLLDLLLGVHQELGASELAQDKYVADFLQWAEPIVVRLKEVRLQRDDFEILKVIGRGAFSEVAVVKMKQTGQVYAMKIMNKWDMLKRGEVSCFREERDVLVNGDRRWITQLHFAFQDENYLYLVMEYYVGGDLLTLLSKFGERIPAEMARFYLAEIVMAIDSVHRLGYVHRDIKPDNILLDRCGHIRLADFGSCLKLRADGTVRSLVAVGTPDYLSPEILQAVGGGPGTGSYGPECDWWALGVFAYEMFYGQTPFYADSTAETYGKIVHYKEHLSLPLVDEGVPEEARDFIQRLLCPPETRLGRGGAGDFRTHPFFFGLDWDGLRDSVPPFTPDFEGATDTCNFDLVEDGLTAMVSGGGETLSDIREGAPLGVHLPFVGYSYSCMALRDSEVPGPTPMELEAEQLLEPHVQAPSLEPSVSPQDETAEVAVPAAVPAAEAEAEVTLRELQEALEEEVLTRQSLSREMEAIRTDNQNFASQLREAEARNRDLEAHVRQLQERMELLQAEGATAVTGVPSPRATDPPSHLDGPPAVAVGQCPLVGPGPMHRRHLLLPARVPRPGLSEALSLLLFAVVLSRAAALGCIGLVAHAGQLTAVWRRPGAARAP

[9] = molecular target: T2, DRAK1(h) (human), Q9UEE5; test: cell-based or functional assay
T2 chain: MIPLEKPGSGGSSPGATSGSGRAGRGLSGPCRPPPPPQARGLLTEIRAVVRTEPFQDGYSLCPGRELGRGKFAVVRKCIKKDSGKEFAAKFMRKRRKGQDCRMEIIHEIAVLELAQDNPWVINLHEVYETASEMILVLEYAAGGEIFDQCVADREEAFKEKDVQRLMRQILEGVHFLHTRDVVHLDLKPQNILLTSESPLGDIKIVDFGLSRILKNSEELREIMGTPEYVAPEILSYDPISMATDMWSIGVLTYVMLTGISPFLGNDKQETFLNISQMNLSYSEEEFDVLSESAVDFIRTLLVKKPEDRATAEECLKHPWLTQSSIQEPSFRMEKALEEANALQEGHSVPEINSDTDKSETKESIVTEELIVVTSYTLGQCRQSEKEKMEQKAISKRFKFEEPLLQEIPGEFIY

[10] = molecular target: EGFR(L861Q)(h) (human), P00533; test: cell-based or functional assay
[11] = molecular target: T3, EphA2(h) (human), P29317; test: cell-based or functional assay
T3 chain: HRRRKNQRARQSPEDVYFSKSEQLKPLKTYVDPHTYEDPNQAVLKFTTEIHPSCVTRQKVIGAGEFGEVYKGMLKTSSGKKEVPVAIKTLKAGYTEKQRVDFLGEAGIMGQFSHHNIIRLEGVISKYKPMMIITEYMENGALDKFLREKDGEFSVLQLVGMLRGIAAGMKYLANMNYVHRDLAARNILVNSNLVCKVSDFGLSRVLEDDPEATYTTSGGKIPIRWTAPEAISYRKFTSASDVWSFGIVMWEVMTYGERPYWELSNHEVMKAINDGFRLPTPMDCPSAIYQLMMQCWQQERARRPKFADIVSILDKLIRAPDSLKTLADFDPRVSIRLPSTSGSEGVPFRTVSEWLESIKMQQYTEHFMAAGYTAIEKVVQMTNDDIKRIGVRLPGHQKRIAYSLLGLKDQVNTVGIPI

[12] = molecular target: T4, FGFR2(h) (human), P21802; test: cell-based or functional assay
T4 chain: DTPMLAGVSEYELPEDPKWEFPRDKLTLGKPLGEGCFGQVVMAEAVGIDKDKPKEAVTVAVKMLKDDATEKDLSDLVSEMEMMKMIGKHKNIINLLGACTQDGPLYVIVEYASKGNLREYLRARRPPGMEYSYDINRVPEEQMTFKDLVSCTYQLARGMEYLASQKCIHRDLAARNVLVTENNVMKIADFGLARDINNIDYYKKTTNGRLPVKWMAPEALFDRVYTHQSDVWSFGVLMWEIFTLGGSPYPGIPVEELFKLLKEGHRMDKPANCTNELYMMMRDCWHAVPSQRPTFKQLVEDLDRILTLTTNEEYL

[13] = molecular target: Fes(h) (human), P07332; test: cell-based or functional assay
[14] = molecular target: Fgr(h) (human), P09769; test: cell-based or functional assay
[15] = molecular target: LOK(h) (human), O94804; test: cell-based or functional assay
[16] = molecular target: MAPKAP-K2(h) (human), P49137; test: cell-based or functional assay
Sequence of MAPKAP-K2(h) (human), P49137 (P49137 46-400 limits assumed): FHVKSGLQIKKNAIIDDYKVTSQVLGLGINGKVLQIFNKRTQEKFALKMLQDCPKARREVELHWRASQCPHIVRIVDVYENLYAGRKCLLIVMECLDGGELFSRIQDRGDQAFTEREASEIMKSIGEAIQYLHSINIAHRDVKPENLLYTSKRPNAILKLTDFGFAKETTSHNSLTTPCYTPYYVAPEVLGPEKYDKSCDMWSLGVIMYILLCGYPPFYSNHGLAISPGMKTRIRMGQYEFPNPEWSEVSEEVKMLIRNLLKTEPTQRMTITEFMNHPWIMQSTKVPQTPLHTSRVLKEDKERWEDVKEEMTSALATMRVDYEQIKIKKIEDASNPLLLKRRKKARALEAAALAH

[17] = molecular target: MAPKAP-K3(h) (human), Q16644; test: cell-based or functional assay
[18] = molecular target: MSK1(h) (human), O75582; test: cell-based or functional assay
[19] = molecular target: Pim-1(h) (human), P11309; test: cell-based or functional assay
[20] = molecular target: TrkB(h) (human), Q16620; test: cell-based or functional assay
[21] = molecular target: Yes(h) (human), P07947; test: cell-based or functional assay
[22] = molecular target: Angiotensin 2 (off-target receptor); test: Cerep binding assay, competition with a radiolabelled ligand
[23] = molecular target: Bombesin (off-target receptor); test: as above
[24] = molecular target: Melanocortin 4 (off-target receptor) (Homo sapiens (Human)), P32245; test: as above
[25] = molecular target: T5, Neurokinin 2 (off-target receptor) (Homo sapiens (Human)), P21452; test: as above
T5 chain: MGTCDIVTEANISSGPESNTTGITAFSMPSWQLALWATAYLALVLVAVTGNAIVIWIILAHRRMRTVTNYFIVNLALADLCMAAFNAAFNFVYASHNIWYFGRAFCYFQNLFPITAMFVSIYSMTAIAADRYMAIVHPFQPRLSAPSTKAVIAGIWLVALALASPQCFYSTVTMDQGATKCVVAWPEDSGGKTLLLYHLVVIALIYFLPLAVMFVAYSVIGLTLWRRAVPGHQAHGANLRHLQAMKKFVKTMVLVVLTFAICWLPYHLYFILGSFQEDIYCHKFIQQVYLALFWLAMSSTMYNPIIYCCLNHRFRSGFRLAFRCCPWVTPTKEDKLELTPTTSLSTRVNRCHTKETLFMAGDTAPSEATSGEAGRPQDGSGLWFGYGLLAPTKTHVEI

[26] = molecular target: Neuropeptide Y (off-target receptor); test: as above
[27] = molecular target: Serotonin 2A (off-target receptor) (Homo sapiens (Human)), P28223; test: as above
Sequence of Serotonin 2A (off-target receptor) (Homo sapiens (Human)), P28223 (P28223 whole entry): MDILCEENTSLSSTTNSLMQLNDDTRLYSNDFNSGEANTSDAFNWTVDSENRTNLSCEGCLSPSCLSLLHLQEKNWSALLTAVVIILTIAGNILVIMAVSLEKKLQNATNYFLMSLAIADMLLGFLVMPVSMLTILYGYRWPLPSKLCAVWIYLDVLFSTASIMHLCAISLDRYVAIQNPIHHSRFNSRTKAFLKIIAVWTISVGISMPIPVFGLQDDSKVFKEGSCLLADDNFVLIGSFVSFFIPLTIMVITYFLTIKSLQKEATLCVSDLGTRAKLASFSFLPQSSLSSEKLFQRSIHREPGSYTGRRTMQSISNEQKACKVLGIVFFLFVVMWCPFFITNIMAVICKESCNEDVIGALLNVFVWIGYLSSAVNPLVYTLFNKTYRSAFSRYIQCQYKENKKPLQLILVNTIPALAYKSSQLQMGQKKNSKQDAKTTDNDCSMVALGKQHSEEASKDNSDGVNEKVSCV

[28] = molecular target: Small conductance calcium activated K+ channel; test: as above
[29] = molecular target: Vasoactive intestinal peptide (off-target receptor); test: as above

Sequence of CaMKIδ(h) (human), Q8IU85 (Q8IU85 whole entry, stated change not applied): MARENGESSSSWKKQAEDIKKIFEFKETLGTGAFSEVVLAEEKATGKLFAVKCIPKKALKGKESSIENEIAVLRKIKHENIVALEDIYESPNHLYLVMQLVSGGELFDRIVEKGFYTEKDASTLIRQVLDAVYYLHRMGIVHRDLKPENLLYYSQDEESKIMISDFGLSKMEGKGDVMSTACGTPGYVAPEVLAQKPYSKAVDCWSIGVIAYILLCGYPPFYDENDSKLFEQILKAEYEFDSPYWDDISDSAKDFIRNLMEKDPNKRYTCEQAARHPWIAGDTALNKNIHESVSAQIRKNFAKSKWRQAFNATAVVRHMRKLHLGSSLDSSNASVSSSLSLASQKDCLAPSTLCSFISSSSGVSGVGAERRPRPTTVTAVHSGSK
Sequence of CaMKIIδ(h) (human), Q13557 (Q13557 whole entry, stated change not applied): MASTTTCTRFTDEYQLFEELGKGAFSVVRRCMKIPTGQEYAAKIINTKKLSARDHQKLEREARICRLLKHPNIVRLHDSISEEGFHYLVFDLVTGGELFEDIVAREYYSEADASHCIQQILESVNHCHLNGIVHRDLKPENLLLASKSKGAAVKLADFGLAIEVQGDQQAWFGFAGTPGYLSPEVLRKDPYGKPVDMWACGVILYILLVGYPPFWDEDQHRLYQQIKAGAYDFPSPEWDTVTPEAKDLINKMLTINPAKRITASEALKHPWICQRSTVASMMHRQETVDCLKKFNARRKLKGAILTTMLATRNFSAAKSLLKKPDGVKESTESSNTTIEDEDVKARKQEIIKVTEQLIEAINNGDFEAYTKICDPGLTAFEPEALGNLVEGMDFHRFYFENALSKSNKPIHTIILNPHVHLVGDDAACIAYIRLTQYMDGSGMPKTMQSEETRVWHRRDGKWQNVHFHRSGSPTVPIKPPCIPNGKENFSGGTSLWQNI
Sequence of CK1δ(h) (human), P48730 (P48730 1-294, stated change not applied): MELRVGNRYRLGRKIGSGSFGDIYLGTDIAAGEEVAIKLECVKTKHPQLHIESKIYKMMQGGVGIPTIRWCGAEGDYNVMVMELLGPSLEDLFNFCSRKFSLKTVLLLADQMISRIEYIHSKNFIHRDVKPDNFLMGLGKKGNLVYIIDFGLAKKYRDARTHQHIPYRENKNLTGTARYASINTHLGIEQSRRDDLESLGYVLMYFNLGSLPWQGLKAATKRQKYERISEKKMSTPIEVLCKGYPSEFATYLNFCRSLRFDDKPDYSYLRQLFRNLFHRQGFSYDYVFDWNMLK
Sequence of Abl(H8396P)(h) (human), P00519 (P00519 27-1130, stated change not applied): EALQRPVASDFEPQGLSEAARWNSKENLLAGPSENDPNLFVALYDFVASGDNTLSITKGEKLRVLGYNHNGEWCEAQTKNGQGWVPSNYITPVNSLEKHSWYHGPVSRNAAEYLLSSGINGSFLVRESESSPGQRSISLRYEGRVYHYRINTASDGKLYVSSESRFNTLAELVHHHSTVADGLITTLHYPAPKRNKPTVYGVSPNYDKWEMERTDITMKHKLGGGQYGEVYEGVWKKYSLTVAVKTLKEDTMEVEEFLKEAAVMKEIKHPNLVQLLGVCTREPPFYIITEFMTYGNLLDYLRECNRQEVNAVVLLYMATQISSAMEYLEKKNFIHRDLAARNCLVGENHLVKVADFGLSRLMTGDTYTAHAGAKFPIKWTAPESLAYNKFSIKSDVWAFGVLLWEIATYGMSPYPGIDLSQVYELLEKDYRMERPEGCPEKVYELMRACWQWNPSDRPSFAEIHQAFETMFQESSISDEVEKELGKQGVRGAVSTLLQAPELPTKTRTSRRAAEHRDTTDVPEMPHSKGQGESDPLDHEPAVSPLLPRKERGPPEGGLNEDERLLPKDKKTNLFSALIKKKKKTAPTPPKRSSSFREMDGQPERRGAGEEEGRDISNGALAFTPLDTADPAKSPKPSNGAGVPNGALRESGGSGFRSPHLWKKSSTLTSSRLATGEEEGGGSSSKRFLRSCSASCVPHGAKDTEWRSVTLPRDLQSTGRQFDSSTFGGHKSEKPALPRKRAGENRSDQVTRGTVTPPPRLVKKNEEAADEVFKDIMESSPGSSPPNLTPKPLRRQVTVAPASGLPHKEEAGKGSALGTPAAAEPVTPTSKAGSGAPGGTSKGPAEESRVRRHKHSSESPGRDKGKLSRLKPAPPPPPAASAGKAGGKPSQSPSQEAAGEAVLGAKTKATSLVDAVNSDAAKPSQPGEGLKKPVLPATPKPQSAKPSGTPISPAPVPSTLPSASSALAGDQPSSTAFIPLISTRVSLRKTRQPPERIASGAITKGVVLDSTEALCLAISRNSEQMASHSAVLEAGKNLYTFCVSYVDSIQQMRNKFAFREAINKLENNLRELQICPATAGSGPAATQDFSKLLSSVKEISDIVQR

B1: MMI-0400 (peptide)
peptide: KAFAKLAARLYRKALARQLGVAA
B1 gave a % activity, 100 µM [1] of 105%, a % activity, 100 µM [2] of 93% and a % activity, 100 µM [3] of 2%. The % activity, 100 µM [4] was 17%, the % activity, 100 µM [5] was 78% and the % activity, 100 µM [6] was 58%.

B2: MMI-0300 (peptide)
peptide: FAKLAARLYRKALARQLGVAA
Binder B2 has a % activity, 100 µM [1] of 101%, a % activity, 100 µM [2] of 92% and a % activity, 100 µM [3] of 1%. The % activity, 100 µM [4] was 10%, the % activity, 100 µM [5] was 78% and the % activity, 100 µM [6] was 64%.

B3: MMI-0100 (peptide)
peptide: YARAAARQARAKALARQLGVAA
modifications: not checked
For B3, the IC50 (kinase activity) [7] was 11.7 µM, the IC50 (kinase activity) [4] was 45.8 µM and the IC50 (kinase activity) [8] was 34.1 µM. It also gave an IC50 (kinase activity) [9] of 78.3 µM, an IC50 (kinase activity) [10] of 128 µM and an IC50 (kinase activity) [11] of 181 µM. For the same binder, the IC50 (kinase activity) [12] was 172 µM, the IC50 (kinase activity) [13] was 174 µM and the IC50 (kinase activity) [14] was 141 µM. The IC50 (kinase activity) [15] was 47.6 µM, the IC50 (kinase activity) [16] was 12.1 µM and the IC50 (kinase activity) [17] was 15.8 µM. For the same binder, the IC50 (kinase activity) [18] was 102 µM, the IC50 (kinase activity) [19] was 71.7 µM and the IC50 (kinase activity) [20] was 4.6 µM. The IC50 (kinase activity) [21] was 114 µM, the % inhibition [22] was < 30% and the % inhibition [23] was < 30%. The % inhibition [24] was < 30%, the % inhibition [25] was < 30% and the % inhibition [26] was < 30%. For the same binder, the % inhibition [27] was < 30%, the % inhibition [28] was < 30% and the % inhibition [29] was < 30%.
